The results in this text go back to IntAct's records for PubMed 31515488.

First the molecules themselves.
B1: Keratin, type I cytoskeletal 40 (Homo sapiens), Q6A162 (parent)
chain: MTSDCSSTHCSPESCGTASGCAPASSCSVETACLPGTCATSRCQTPSFLSRSRGLTGCLLPCYFTGSCNSPCLVGNCAWCEDGVFTSNEKETMQFLNDRLASYLEKVRSLEETNAELESRIQEQCEQDIPMVCPDYQRYFNTIEDLQQKILCTKAENSRLAVQLDNCKLATDDFKSKYESELSLRQLLEADISSLHGILEELTLCKSDLEAHVESLKEDLLCLKKNHEEEVNLLREQLGDRLSVELDTAPTLDLNRVLDEMRCQCETVLANNRREAEEWLAVQTEELNQQQLSSAEQLQGCQMEILELKRTASALEIELQAQQSLTESLECTVAETEAQYSSQLAQIQCLIDNLENQLAEIRCDLERQNQEYQVLLDVKARLEGEINTYWGLLDSEDSRLSCSPCSTTCTSSNTCEPCSAYVICTVENCCL
B2: SH2 domain-containing protein 4A (Homo sapiens), Q9H788 (parent)
chain: MLKQILSEMYIDPDLLAELSEEQKQILFFKMREEQIRRWKEREAAMERKESLPVKPRPKKENGKSVHWKLGADKEVWVWVMGEHHLDKPYDVLCNEIIAERARLKAEQEAEEPRKTHSEEFTNSLKTKSQYHDLQAPDNQQTKDIWKKVAEKEELEQGSRPAPTLEEEKIRSLSSSSRNIQQMLADSINRMKAYAFHQKKESMKKKQDEEINQIEEERTKQICKSWKEDSEWQASLRKSKAADEKRRSLAKQAREDYKRLSLGAQKGRGGERLQSPLRVPQKPERPPLPPKPQFLNSGAYPQKPLRNQGVVRTLSSSAQEDIIRWFKEEQLPLRAGYQKTSDTIAPWFHGILTLKKANELLLSTGMPGSFLIRVSERIKGYALSYLSEDGCKHFLIDASADAYSFLGVDQLQHATLADLVEYHKEEPITSLGKELLLYPCGQQDQLPDYLELFE
B3: Synaptotagmin-like protein 4 (Homo sapiens), Q96C24 (parent)
chain: MSELLDLSFLSEEEKDLILSVLQRDEEVRKADEKRIRRLKNELLEIKRKGAKRGSQHYSDRTCARCQESLGRLSPKTNTCRGCNHLVCRDCRIQESNGTWRCKVCAKEIELKKATGDWFYDQKVNRFAYRTGSEIIRMSLRHKPAVSKRETVGQSLLHQTQMGDIWPGRKIIQERQKEPSVLFEVPKLKSGKSALEAESESLDSFTADSDSTSRRDSLDKSGLFPEWKKMSAPKSQVEKETQPGGQNVVFVDEGEMIFKKNTRKILRPSEYTKSVIDLRPEDVVHESGSLGDRSKSVPGLNVDMEEEEEEEDIDHLVKLHRQKLARSSMQSGSSMSTIGSMMSIYSEAGDFGNIFVTGRIAFSLKYEQQTQSLVVHVKECHQLAYADEAKKRSNPYVKTYLLPDKSRQGKRKTSIKRDTINPLYDETLRYEIPESLLAQRTLQFSVWHHGRFGRNTFLGEAEIQMDSWKLDKKLDHCLPLHGKISAESPTGLPSHKGELVVSLKYIPASKTPVGGDRKKSKGGEGGELQVWIKEAKNLTAAKAGGTSDSFVKGYLLPMRNKASKRKTPVMKKTLNPHYNHTFVYNGVRLEDLQHMCLELTVWDREPLASNDFLGGVRLGVGTGISNGEVVDWMDSTGEEVSLWQKMRQYPGSWAEGTLQLRSSMAKQKLGL

The first assay covers variants of B1. The settings on record: with wt1_human WT1, P19544.
wt1_human WT1, P19544, sequence (P19544 whole entry): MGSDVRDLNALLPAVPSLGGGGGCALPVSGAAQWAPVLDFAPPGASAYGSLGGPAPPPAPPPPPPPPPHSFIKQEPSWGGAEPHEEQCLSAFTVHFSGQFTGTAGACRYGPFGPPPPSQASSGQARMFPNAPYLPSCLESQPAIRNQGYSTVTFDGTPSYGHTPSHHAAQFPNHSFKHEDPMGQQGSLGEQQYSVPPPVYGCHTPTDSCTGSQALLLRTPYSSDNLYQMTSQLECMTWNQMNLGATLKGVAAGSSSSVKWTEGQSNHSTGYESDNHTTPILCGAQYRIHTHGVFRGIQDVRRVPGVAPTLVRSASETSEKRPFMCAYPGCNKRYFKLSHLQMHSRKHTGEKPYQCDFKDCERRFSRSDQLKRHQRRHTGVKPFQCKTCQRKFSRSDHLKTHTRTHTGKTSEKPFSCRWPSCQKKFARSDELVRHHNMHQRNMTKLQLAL
Regarding W390R, the “effect of a mutation on the interaction” value is on record as “with no effect”.
In the case of S102N, the “effect of a mutation on the interaction” value is on record as “with no effect”.
Still for that read-out and setting: the result for A115T reads “with no effect”; that for F85S, “with no effect”; that for T37A, “with no effect”.
For the variant T153M, the “effect of a mutation on the interaction” value was “with no effect”.
Same read-out and setting: the result for C349R reads “with no effect”; that for T388M, “with no effect”.

Variants of B1 are the subject of a further assay. The settings on record: with k2c4_human KRT4, P19013.
k2c4_human KRT4, P19013, sequence (P19013 whole entry): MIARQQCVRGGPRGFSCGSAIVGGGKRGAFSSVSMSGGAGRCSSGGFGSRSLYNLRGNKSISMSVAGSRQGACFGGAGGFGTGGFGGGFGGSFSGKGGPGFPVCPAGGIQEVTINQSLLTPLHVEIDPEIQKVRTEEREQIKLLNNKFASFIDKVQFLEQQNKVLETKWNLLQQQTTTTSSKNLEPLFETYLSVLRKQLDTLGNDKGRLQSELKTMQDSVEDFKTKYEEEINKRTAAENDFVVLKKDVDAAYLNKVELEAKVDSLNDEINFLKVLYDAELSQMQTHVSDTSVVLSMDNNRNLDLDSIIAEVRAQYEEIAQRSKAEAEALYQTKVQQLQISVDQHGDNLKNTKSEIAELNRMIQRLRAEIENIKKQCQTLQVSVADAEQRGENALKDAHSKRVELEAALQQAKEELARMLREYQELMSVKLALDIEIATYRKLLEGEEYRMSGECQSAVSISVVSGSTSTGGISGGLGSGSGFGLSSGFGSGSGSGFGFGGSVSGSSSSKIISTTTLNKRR
Take W390R: the “effect of a mutation on the interaction” value was “with no effect”.
As to S102N, the “effect of a mutation on the interaction” value was “with no effect”.
Still for that read-out and setting: the result for A115T reads “with no effect”; that for F85S, “with no effect”; that for T37A, “with no effect”.
On the same count and under the same terms, the result for T153M reads “with no effect”.
In the case of C349R, the “effect of a mutation on the interaction” value is recorded as “with no effect”.
Turning to T388M, the “effect of a mutation on the interaction” value is listed as “with no effect”.

A further assay covers variants of B1. The settings on record: with mta1_human MTA1, Q13330.
mta1_human MTA1, Q13330, sequence (Q13330 whole entry): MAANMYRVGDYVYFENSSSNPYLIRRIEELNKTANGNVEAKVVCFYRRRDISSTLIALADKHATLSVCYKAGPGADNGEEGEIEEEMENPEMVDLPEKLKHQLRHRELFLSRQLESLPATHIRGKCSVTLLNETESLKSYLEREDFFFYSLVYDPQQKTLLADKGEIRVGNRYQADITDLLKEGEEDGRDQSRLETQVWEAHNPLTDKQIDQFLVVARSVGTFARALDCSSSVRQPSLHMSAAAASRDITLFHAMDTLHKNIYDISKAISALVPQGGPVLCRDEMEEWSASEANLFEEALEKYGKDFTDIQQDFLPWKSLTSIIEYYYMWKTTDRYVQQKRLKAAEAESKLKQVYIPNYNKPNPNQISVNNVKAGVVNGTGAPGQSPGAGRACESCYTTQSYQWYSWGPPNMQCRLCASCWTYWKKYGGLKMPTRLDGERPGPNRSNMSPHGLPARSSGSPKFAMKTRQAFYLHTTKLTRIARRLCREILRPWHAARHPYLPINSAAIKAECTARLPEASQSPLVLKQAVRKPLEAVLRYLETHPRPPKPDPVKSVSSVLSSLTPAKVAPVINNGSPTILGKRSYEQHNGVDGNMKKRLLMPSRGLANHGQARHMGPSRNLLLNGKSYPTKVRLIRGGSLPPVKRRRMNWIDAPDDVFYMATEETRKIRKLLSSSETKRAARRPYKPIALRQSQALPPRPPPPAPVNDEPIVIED
Turning to W390R, the “effect of a mutation on the interaction” value was “with no effect”.
S102N: the “effect of a mutation on the interaction” value is recorded as “with no effect”.
In the case of A115T, the “effect of a mutation on the interaction” value was “with no effect”.
Turning to F85S, the “effect of a mutation on the interaction” value is “with no effect”.
Turning to T37A, the “effect of a mutation on the interaction” value is “with no effect”.
The same measure, in the same setting: the result for T153M reads “with no effect”.
On the same count and under the same terms, with C349R the entry was “with no effect”; with T388M, “with no effect”.

Variants of B1 are the subject of another assay. The following applies: with prs8_human PSMC5, P62195.
prs8_human PSMC5, P62195, sequence (P62195 whole entry): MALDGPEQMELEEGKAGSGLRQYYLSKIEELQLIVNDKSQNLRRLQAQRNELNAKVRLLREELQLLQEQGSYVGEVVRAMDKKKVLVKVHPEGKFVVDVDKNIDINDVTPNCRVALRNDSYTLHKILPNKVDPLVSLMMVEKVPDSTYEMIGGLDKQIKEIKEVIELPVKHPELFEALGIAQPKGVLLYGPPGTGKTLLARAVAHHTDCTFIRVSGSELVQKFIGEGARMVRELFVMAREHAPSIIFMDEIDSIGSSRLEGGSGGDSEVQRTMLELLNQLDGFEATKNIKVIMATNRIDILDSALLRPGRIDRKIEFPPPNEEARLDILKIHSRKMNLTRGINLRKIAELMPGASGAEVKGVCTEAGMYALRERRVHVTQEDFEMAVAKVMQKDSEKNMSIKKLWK
Regarding W390R, the “effect of a mutation on the interaction” value is “with no effect”.
Same read-out and setting: the result for S102N reads “with no effect”.
As for A115T, the “effect of a mutation on the interaction” value is on record as “with no effect”.
Same read-out and setting: the result for F85S reads “with no effect”; that for T37A, “with no effect”.
Regarding T153M, the “effect of a mutation on the interaction” value is reported as “with no effect”.
Same read-out and setting: with C349R the entry was “with no effect”.
In the case of T388M, the “effect of a mutation on the interaction” value is on record as “with no effect”.

In another assay the parent is B1. The settings on record: with snai1_human SNAI1, O95863.
snai1_human SNAI1, O95863, sequence (O95863 whole entry): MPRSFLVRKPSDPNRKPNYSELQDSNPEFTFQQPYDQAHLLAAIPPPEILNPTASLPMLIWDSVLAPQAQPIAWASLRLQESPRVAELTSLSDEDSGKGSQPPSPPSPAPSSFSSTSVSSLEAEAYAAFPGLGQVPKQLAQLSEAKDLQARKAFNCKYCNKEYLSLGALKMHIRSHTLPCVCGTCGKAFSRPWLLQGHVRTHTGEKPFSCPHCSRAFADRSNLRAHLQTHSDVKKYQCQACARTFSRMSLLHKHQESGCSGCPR
For the variant W390R, the “effect of a mutation on the interaction” value was “with no effect”.
For S102N, the “effect of a mutation on the interaction” value is “with no effect”.
With A115T, the “effect of a mutation on the interaction” value is given as “with no effect”.
In the case of F85S, the “effect of a mutation on the interaction” value is “with no effect”.
As to T37A, the “effect of a mutation on the interaction” value is given as “with no effect”.
Take T153M: the “effect of a mutation on the interaction” value is listed as “with no effect”.
Turning to C349R, the “effect of a mutation on the interaction” value is “with no effect”.
Still for that read-out and setting: the result for T388M reads “with no effect”.

The variants in another assay derive from B2. The following applies: with tfp11_human TFIP11, Q9UBB9.
tfp11_human TFIP11, Q9UBB9, sequence (Q9UBB9 whole entry): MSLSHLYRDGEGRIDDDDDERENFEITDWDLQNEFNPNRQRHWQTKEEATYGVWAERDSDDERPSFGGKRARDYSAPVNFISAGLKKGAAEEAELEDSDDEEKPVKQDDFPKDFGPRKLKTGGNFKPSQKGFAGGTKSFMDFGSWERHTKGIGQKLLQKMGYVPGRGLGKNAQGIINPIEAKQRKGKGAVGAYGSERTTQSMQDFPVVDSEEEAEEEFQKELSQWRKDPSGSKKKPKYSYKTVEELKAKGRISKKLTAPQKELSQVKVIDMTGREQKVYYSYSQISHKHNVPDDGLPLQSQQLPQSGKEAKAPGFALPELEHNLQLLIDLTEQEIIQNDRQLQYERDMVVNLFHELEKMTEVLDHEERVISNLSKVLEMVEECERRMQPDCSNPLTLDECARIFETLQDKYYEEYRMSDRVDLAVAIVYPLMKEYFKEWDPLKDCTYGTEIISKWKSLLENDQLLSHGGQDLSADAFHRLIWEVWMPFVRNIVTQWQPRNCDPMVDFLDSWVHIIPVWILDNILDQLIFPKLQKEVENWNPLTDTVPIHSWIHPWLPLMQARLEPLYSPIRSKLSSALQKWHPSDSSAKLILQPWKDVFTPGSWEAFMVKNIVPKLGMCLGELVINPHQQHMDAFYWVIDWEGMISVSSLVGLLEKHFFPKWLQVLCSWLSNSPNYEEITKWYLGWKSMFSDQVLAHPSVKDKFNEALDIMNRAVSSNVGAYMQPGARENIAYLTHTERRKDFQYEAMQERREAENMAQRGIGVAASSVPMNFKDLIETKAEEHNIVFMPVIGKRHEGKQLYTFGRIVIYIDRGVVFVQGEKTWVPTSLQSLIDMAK
Consider K303R, for which the “effect of a mutation on the interaction” value was “with no effect”.
Regarding G263A, the “effect of a mutation on the interaction” value is “with no effect”.
For the variant E216G, the “effect of a mutation on the interaction” value is given as “with no effect”.

The variants in the next assay derive from B2. The settings on record: with tacc1_human TACC1, O75410.
tacc1_human TACC1, O75410, sequence (O75410 whole entry): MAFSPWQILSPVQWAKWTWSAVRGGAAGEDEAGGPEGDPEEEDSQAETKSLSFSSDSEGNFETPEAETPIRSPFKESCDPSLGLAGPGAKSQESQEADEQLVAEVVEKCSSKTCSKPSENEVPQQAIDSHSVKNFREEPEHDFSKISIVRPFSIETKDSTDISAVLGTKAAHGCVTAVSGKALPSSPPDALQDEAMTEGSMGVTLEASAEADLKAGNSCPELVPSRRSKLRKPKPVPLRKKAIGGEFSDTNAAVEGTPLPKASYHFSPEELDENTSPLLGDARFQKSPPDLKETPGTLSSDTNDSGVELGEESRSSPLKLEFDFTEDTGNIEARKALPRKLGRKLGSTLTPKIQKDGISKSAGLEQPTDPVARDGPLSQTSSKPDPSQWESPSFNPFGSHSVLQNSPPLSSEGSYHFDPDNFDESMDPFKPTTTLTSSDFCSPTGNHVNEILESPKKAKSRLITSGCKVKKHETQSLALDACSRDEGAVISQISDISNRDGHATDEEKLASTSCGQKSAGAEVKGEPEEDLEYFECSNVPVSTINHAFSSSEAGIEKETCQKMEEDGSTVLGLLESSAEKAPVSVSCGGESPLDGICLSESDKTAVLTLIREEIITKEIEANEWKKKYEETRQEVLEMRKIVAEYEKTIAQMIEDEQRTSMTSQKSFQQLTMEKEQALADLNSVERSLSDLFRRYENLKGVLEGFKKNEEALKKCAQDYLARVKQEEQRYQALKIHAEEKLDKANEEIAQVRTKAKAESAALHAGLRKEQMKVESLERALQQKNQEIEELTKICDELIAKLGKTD
Consider K303R, for which the “effect of a mutation on the interaction” value is listed as “with no effect”.
For G263A, the “effect of a mutation on the interaction” value is “with no effect”.
E216G: the “effect of a mutation on the interaction” value is reported as “with no effect”.

In the next assay the parent is B2. The settings on record: with ldoc1_human LDOC1, O95751.
ldoc1_human LDOC1, O95751, sequence (O95751 whole entry): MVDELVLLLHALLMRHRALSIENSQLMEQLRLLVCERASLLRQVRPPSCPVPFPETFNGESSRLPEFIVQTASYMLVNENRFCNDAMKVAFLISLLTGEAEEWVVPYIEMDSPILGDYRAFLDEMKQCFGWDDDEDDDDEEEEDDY
On to K303R, for which the “effect of a mutation on the interaction” value is “with no effect”.
In the case of G263A, the “effect of a mutation on the interaction” value is “with no effect”.
The same measure, in the same setting: with E216G the entry was “with no effect”.

Variants of B3 are the subject of a further assay. The settings on record: with hm20a_human HMG20A.
For D252G, the “effect of a mutation on the interaction” value is “with no effect”.
With M646I, the “effect of a mutation on the interaction” value was “with no effect”.

In the next assay the parent is B3. The settings on record: with cep70_human CEP70, Q8NHQ1.
cep70_human CEP70, Q8NHQ1, sequence (Q8NHQ1 whole entry): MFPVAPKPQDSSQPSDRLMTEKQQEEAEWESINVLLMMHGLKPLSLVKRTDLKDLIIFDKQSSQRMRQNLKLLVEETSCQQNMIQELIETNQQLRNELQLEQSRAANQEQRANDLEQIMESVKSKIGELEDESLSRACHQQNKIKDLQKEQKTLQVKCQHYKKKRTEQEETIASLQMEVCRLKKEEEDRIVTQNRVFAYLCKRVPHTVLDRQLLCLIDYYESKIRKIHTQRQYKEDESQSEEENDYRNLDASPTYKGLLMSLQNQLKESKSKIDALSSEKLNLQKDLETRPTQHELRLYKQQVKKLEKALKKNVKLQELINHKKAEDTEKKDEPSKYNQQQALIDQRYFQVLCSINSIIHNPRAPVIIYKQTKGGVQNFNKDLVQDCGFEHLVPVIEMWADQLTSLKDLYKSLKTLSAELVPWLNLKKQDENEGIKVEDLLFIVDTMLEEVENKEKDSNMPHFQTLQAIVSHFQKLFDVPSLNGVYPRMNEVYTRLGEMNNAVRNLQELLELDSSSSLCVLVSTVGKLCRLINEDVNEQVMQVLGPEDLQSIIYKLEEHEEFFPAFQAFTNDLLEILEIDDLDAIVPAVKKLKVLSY
As to D252G, the “effect of a mutation on the interaction” value was “with no effect”.
Still for that read-out and setting: the result for M646I reads “disrupting interaction strength”.
